Results reported in PMC11436757, “BRCA2 stabilises RAD51 and DMC1 nucleoprotein filaments through a conserved interaction mode” (Nature Communications, 2024).
Where a chain is given by its changes, count along the chain named. In names and notes the source's numbering stands. Entries after “also recorded” stand apart in the source; their conditions may differ. Where two headings read alike, the source gives them in different places. Each block holds one molecule with its values, some of them ahead of it. No end group written: not given here.

T1: DMC1 ΔN (Homo sapiens, UniProt Q14565)
T1 construct: DMC1 ΔN (83-340) were cloned into pHAT4; His6 (TEV-cleavable) (N, cleaved yes); made in house; host or cells: E. coli BL21 (DE3)
T1 sequence (Q14565 83-340): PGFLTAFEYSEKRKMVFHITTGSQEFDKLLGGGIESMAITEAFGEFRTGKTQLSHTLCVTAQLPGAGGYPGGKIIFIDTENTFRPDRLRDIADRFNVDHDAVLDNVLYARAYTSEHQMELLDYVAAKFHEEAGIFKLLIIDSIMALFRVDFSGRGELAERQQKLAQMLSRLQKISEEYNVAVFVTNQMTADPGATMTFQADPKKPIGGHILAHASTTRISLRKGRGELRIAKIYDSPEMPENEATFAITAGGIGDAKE

B1: BRCA2 Ex14 (amino acids 2387-2420), purified (peptide, UniProt P51587 2387-2420, looked up)
chain: ATRNEKMRHLITTGRPTKVFVPPFKTKSHFHRVE
notes: human BRCA2 exon 14 PhePP region, amino acids 2387-2420; source: E. coli BL21 (DE3), purified (Ni-NTA, HiTrap Q, TEV cleavage, HiTrap SP, SEC)
B2: DMC1 ΔN loop mutant, purified (domain or fragment, human, UniProt Q14565 83-340, looked up)
chain: PGFLTAFEYSEKRKMVFHITTGSQEFDKLLGGGIESMAITEAFGEFRTGKTQLSHTLCVTAQLPIDRGGGEGKIIFIDTENTFRPDRLRDIADRFGLSGSDVLDNVLYARAYTSEHQMELLDYVAAKFHEEAGIFKLLIIDSIMALFRVDFSGRGELAERQQKLAQMLSRLQKISEEYNVAVFVTNQMTADPGATMTFQADPKKPIGGHILAHASTTRISLRKGRGELRIAKIYDSPEMPENEATFAITAGGIGDAKE
modifications: amine reactive fluorescent dye (Monolith Protein Labelling Kit BLUE-NHS) in the MST only
notes: The purification of the mutant is not described; probably as for DMC1 ΔN (His6 tag cleaved)
B3: 100-nt poly(dT) (ssDNA)
DNA: TTTTTTTTTTTTTTTTTTTTTTTTTTTTTTTTTTTTTTTTTTTTTTTTTTTTTTTTTTTTTTTTTTTTTTTTTTTTTTTTTTTTTTTTTTTTTTTTTTTT
B4: BRCA2 Ex14-Tr peptide (amino acids 2401-2414) (peptide)
peptide: RPTKVFVPPFKTKS
notes: human BRCA2 Ex14 truncated, amino acids 2401-2414; also called truncated Ex14; source: synthetic peptide (Severn Biotech)
B5: DMC1 ΔN (amino-acids 83-340), purified (domain or fragment, human, UniProt Q14565 83-340, looked up)
chain: T1 sequence (Q14565 83-340)
modifications: amine reactive fluorescent dye (Monolith Protein Labelling Kit BLUE-NHS) in the MST only
notes: human DMC1 with its N-terminal domain deleted, amino acids 83-340; Octameric ring in the crystal and in solution; also called DMC1 core; structural core of human DMC1; source: E. coli BL21 (DE3), purified (Ni-NTA, HiTrap Q, TEV cleavage, HiTrap Q, SEC)
B6: His-DMC1 ΔN V179E mutant (domain or fragment, human, UniProt Q14565 83-340, looked up)
chain: T1 sequence (Q14565 83-340) with V97E
notes: human DMC1 ΔN (83-340) with V179E, cloned into pHAT4; His tag named on the protein in the pull-down; also called His6-DMC1 mutant; source: E. coli, in lysate (pull-down); purified for SEC-MALS (purification not described)

Key:
[1] = molecular target: B5; test: MST; DMC1 ΔN or loop mutant labelled with BLUE-NHS dye, constant at 150 nM; peptide titrated in 1:1 dilutions starting from 750 µM; 10 mM HEPES pH 8.0, 150 mM NaCl, 0.05 % Tween-20; room temperature (~22 °C); affinities derived from initial fluorescence
DMC1-ssDNA filaments [2] = test: EMSA, stimulation of DMC1-ssDNA filament formation (TAE pH 7.5); format: biochemical, human
Description: (§1) What is the function of the BRCA2 Ex14-DMC1 interaction? We used electrophoretic mobility shift assays (EMSAs) to determine the impact of BRCA2-binding on DMC1 nucleoprotein filaments. We used two different conditions for nucleoprotein filament assembly. Firstly, a TAE (tris, acetate, EDTA; pH 7.5) buffer that was previously used for RAD51-ssDNA filaments, in which DMC1-ssDNA filaments were partially formed at the canonical ratio of three nucleotides to one protomer (Fig. 3a). Secondly, a TEA (triethanolamine; pH 7.5) + KCl buffer based on previous DMC1 studies[36]–[38], in which DMC1-ssDNA filament formation was more complete at the canonical ratio (Fig. 3b). […] This was noticeable using Ex14 in equimolar amounts (11 μM), and became substantial at a 5-fold stoichiometric excess (55 μM) (Fig. 3b). As the KD of the DMC1-Ex14 interaction is approximately 30 μM (Fig. 2a), the requirement for a stoichiometric excess is likely due to binding being favoured at Ex14 concentrations above the KD.
(§2) To form nucleoprotein filaments, DMC1 and RAD51 was incubated with fluorescent 100-base ssDNA (5’-FAM- […]-3’) at the concentrations indicated in the figures for 30 minutes at 4 °C in reaction buffer. For DMC1, reaction buffer is 25 mM TEA (triethanolamine) pH 7.5, 1 mM ATP, 2 mM MgCl2, 0.1 mg/ml BSA, 2 mM DTT, 200 mM KCl. For RAD51, reaction buffer is 50 mM TEA (triethanolamine), 2 mM ATP, 0.5 mM MgCl2, 2 mM DTT. For assays requiring incomplete nucleoprotein filament assembly, the reaction buffer consisted of 50 mM TAE (tris, acetate, EDTA) pH 7.5, 2 mM ATP, 2 mM MgCl2, 2 mM DTT. In nucleoprotein formation stimulation assays or supershift experiments, BRCA2Ex14 or BRCA2Ex14-AAA were added for a further 30 min at 4 °C. […] Glycerol was added at a final concentration of 3%, and samples were analysed by electrophoresis on a 1% (w/v) (for DMC1) or 0.66% (w/v) (for RAD51) agarose gel in 0.5x TAE pH 8.0 at 20–40 V for ~4 h at 4 °C. DNA was detected by FAM using a Typhoon^TM FLA 9500 (GE Healthcare), with 473 nm laser at excitation wavelength 490 nm and emission wavelength 520 nm, using the LPB filter and a PMT voltage of 500 V. To analyse RAD51 nucleoprotein filaments assembled upon 100-base poly(dT) ssDNA, gels were stained post-run using SYBR^TM Gold Nucleic Acid Gel Stain (Invitrogen) and detected using a Typhoon^TM FLA 9500 (GE Healthcare).

[3] = system: DMC1 V179E-ssDNA filaments; test: EMSA, super-shift of filaments formed using DMC1 V179E; format: biochemical, human
Method: as §2

DMC1-ssDNA filaments [4] = test: EMSA, super-shift of DMC1-ssDNA filaments (TEA pH 7.5 + KCl); format: biochemical, human; conditions: 100-nt random ssDNA, 4 °C
Description: as §1, §2

DMC1-ssDNA filaments [5] = test: EMSA, protection of DMC1-ssDNA filaments from BRC4-mediated disruption; format: biochemical, human; conditions: TEA pH 7.5 + KCl; Ex14 10-fold stoichiometric excess (110 μM); 10-fold excess of BRC4
Method: Finally, we tested whether binding of BRCA2 Ex14 protects DMC1-ssDNA nucleoprotein filaments from BRC4-mediated disruption (Fig. 3c). […] Further, whilst the core PhePP interaction site is sufficient to stimulate DMC1-ssDNA nucleoprotein filament formation, surrounding amino-acids that are present within Ex14 (but not Ex14-Tr) are necessary to super-shift filaments and confer protection from BRC4-mediated disruption.
as §2

RAD51-ssDNA filaments = test: EMSA, protection of RAD51-ssDNA filaments from BRC4-mediated disruption (random sequence ssDNA); format: biochemical; conditions: 100-nt random ssDNA; 10-fold excess of Ex27
Method: as §2

[6] = system: RAD51-ssDNA (polydT) filaments; test: EMSA, protection of RAD51-ssDNA (polydT) filaments from BRC4-mediated disruption; format: biochemical; conditions: 100-nt polydT; 10-fold excess of Ex27
Method: as §2

DMC1 ΔN [7] = molecular target: T1, DMC1 ΔN; test: Amylose pull-down of DMC1 ΔN with MBP-BRCA2 fusions; format: binding; conditions: recombinant co-expression with MBP-BRCA2 fusion
Description: For affinity pulldown experiments, MBP-fusions of BRCA2 fragments (Ex14, amino-acids 2387-2420, Ex14-Tr, amino acids 2401-2414, Ex27, amino acids 3270-3315, BRC4, amino acids 1519-1551) were cloned into pMAT11 vectors[54] and co-expressed with DMC1 ΔN, DMC1 ΔN loop mutant (in which DMC1 amino acids 147-GAGGYPG-153 and 178-NVDHDA-183 were replaced by the cognate sequences of RAD51 148-IDRGGGE-154 and 179-GLSGSD-184), RAD51 ΔN, RAD51 ΔN loop mutant (the reverse switch of DMC1 ΔN loop mutant), and RAD51. MBP-fusions and complexes were purified through amylose affinity chromatography.

DMC1 ΔN [8] = molecular target: T1, DMC1 ΔN; test: Microscale thermophoresis (MST), BRCA2 peptides and DMC1 ΔN; format: binding; conditions: labelled DMC1 ΔN 150 nM
Method: DMC1 ΔN and DMC1 ΔN loop mutant were labelled in 10 mM HEPES pH 8.0, 150 mM NaCl with an amine reactive fluorescent dye (MonolithTM Protein Labelling Kit BLUE-NHS, Nanotemper GmbH). A serial dilution of titrant (peptide) was prepared in 10 mM HEPES pH 8.0, 150 mM NaCl, 0.05 % Tween-20. The concentration of labelled DMC1 ΔN or DMC1 ΔN loop mutant were constant at 150 nM and the concentration of the interacting peptide was titrated in 1:1 dilutions starting from 750 µM. An equal volume (10 µl) of the serial dilution and of the diluted labelled DMC1 were mixed and loaded in glass capillaries (MonolithTM NT.115 MST Premium Coated Capillaries, Nanotemper GmbH). The initial fluorescence and the thermophoretic mobility were measured on a Monolith NT.115 system (NanoTemper Technologies). The excitation power was 45 % and MST power was 60 % at room temperature (~22 °C). Laser on and off times were set at 5 and 30 seconds, respectively. Data analysis was performed with NT Affinity Analysis software.
As a change in initial fluorescence was detected, SDS denaturation (SD) tests were performed according to the manufacturer’s instructions to determine whether these changes were ligand-induced and whether the data could therefore be used to derive affinity measurements. Briefly, 7 µl of the samples containing the three highest and three lowest concentrations of peptide were mixed with 7 µl of denaturation buffer (4 % SDS, 40 mM DTT). After incubating each for 5 minutes at 95 °C to denature the proteins and subject to brief centrifugation, the samples were loaded onto Premium Coated Capillaries and their initial fluorescence measurements recorded. […] Initial fluorescence readings were used to derive binding affinities.

[9] = molecular target: the molecule itself; test: SEC-MALS; Superdex 200 Increase 10/300 GL, 20 mM Tris pH 8.0, 150 mM KCl, 2 mM DTT; the loop mutant also by SEC-SAXS
RAD51;BRCA2 Ex27 = RAD51;BRCA2 Ex27 (Homo sapiens?;Homo sapiens?, UniProt Q06609;P51587 1-339;3270-3315, |); test: EMSA, BRC4 protection; 10-fold excess Ex27 + BRC4, complete protection; largely protected at 33 µM Ex27; DMC1: 25 mM TEA (triethanolamine) pH 7.5, 200 mM KCl, 1 mM ATP, 2 mM MgCl2, 0.1 mg/ml BSA, 2 mM DTT, or 50 mM TAE pH 7.5, 2 mM ATP, 2 mM MgCl2, 2 mM DTT; RAD51: 50 mM TEA, 2 mM ATP, 0.5 mM MgCl2, 2 mM DTT; all 4 C, agarose gel in 0.5x TAE; conditions: tags: ;; label: none (SYBR Gold post-stain); single strand
[10] = molecular target: the molecule itself; test: crystal structure; DMC1 ΔN crystals soaked overnight with 3.5 mM BRCA2 Ex14-Tr peptide; anisotropic resolution limits 3.4-5.8 Å; peptide built with the guide of an AlphaFold2 model

Kd [1]: > 96 µM
Molecule: BRCA2 Ex27 peptide (amino acids 3270-3315) (from UniProt P51587 3270-3315)

binding in pull-down (DMC1 ΔN [7]): not
Molecule: Ex14-AAA: Ex14 with alanine mutations F2406A, P2408A, P2409A (ATRNEKMRHLITTGRPTKVAVAAFKTKSHFHRVE; left off: His6, end not stated, cleaved | MBP, end not stated, cleaved)
stimulation of DMC1-ssDNA nucleoprotein filament formation (DMC1-ssDNA filaments [2]; TAE pH 7.5, 100-nt random ssDNA, 4 °C, canonical ratio of three nucleotides to one protomer, equimolar for Ex14): largely failed to stimulate filament formation
stimulation of DMC1-ssDNA filament formation at high concentrations (DMC1-ssDNA filaments [2]; high peptide concentrations): partial stimulation; also recorded: some stimulation of filament formation
super-shift of DMC1 V179E-ssDNA filaments [3]: The residual super-shift was the same
super-shift of pre-formed DMC1-ssDNA filaments (DMC1-ssDNA filaments [4]): largely failed to stimulate or super-shift; also recorded: largely eliminated
protection of DMC1-ssDNA filaments from BRC4-mediated disruption (DMC1-ssDNA filaments [5]): almost completely lost; also recorded: largely abrogated
protection of RAD51-ssDNA filaments from BRC4-mediated disruption (RAD51-ssDNA filaments): not
protection of RAD51-ssDNA (polydT) filaments from BRC4-mediated disruption [6]: not
interaction by MST (in words) (DMC1 ΔN [8]; pH 8.0): largely disrupted; also recorded: not detectable

Kd (DMC1 ΔN [8]; MST from initial fluorescence, 10 mM HEPES pH 8.0, 150 mM NaCl, 0.05 % Tween-20, ~22 °C, mean, n = 3 independent experiments): 35.7 µM
Molecule: RPTKVFVPPFKTKS [Ex14-Tr]

Molecule: B1
Kd ([1]; both partners purified): ~30 µM

Molecule: B2
stoichiometry N [9]: 8

Molecule: B3
binding result (RAD51;BRCA2 Ex27): binds

Molecule: B4
Kd ([1]; both partners purified): 36 µM

Molecule: B5
stoichiometry N [10]: 8

Molecule: B6
stoichiometry N [9]: 8
